Reference: US20260055143A1, “HIGH AFFINITY VARIANTS OF SH2 DOMAINS” (Axoiya Inc., priority 2023, published 2026)

Tests used:
[1] = molecular target: Ezrin peptide (PPV{pTyr}EPVS (SEQ ID NO: 257)) (Homo sapiens, UniProt P15311); test: Competitive phage ELISA, Fes variants; format: binding; conditions: IC50-based, fold over Fes wt
Experimental: (§1) Competitive and non-competitive phage ELISAs were performed as previously described with minor modifications to the protocol. Peptide sequences used for these analyses can be found in Table 4.
(§2) Streptavidin (50 ng/well in TBS (50 mM Tris-HCl pH 8.0, 150 mM NaCl) was coated onto MAXISORP plates (Thermo Scientific). Phage binding was detected using HRP conjugated anti-M13 secondary antibody (1/2000 dilution, GE Healthcare) in TBS buffer containing 0.05% Tween-20 (TBT buffer). Phage binding was detected using the 3,3′,5,5′-tetramethylbenzidine (TMB) (Thermo Fisher Scientific) chromogenic substrate. Plates were read using a PowerWave XS microplate reader (BioTek).
(§3) Competitive phage-ELISAs were used to determine binding affinity of SH2 superbinders for their cognate target. ELISAs were performed as previously described, biotinylated and phosphorylated peptides were immobilized on plates at the concentration of 0.2 μM, and available binding sites on streptavidin were blocked by adding 25 μl/well of 50 μM D-biotin in TBS. […] Data were plotted using Prism 6 software (GraphPad Software Inc) and affinity of SH2 domains was inferred from determination of the half maximal inhibition concentration (IC50).

[2] = molecular target: T1, ezrin phosphopeptide (PPV{pTyr}EPV (SEQ ID NO: 258)) (Homo sapiens, UniProt P15311); test: Fluorescence polarization binding assay of purified Fes-SH2 variants with peptide pEZ
T1 construct: made in house; host or cells: peptide: chemical (Fmoc) synthesis; SH2 domains: Escherichia coli BL21(DE3)
From the text: Peptide were synthesized using 9-fluorenylmethoxycarbonyl chemistry with the Prelude peptide synthesizer (Gyros Protein Technologies, Inc., Tucson, AZ) on Rink amide MBHA resin (Novabiochem, London, GB). Each peptide N-terminus was functionalized with biotin through a linker composed of two F-aminocaproic acids (Bachem). N-hydroxysuccinimide-fluorescein was used for N-terminal fluorescein labeling of the synthesized Ezrin pTyr-peptide used in fluorescence polarization tests. All peptides were purified using C-18 reverse phase HPLC (Waters) and their identity was confirmed by mass spectrometry on an Orbitrap Elite (ThermoFisher). Phosphopeptides that were used in the study but not synthesized in house were from GenScript.
Fluorescence polarization assays were performed as previously described. Briefly, binding measurements were performed in FP buffer (25 mM HEPES pH 7.5, 100 mM NaCl, 1 mM DTT, 0.01 mg/ml BSA, 0.03% BRIJ-35) by mixing in a 96-well plate 25 nM FITC-labeled Ezrin pTyr-peptide with serial dilutions of Fes-SH2 variants ranging from 1 mM to 22 nM. Samples were equilibrated at room temperature for 30 minutes before reading plates on an HTS Multi-Mode Microplate Reader (Synergy Neo) using an excitation filter of 485 nm and an emission filter of 530 nm. Dissociation constants were determined with Prism (GraphPad Software Inc) using a one-site total binding model.

cancer cell signaling = conditions: expression of the autonomous domain; cited from earlier work
[3] = tested on: pMT peptide (EEPQ{pTyr}EEIPIY (SEQ ID NO: 181)); test: Competitive phage ELISA, Src variants; format: binding; conditions: IC50-based, fold over Src wt
Experimental: as §1, §2, §3

QGVI{pTyr}SDLNLP = QGVI{pTyr}SDLNLP (Homo sapiens, UniProt P26715); test: Competitive ELISA, Ptn6_C variants; format: binding
Experimental: as §1, §2, §3
Peptides listed in Table 5 were used to assay for binding affinity of each corresponding SH2 domain.

B1: Fes^sSrc: SEQ ID 145: Fes SH2 domain with sSrc graft (protein)
chain: MKIEEHHHHHHSSGKLGLNDIFEAQKIEWHESSGEDLYFQSGTTMDDYKDDDDKGGSEVQKPLHEQLWYHGAIPRAEVAELLVHSGDFLVRESETVKGAYALSVLWDGLPRHFLIQSLDNLYRLEGEGFPSIPLLIDHLLSTQQPLTKKSGVVLHRAVPSR
For B1, the “enhancement of affinity of the domain (times)” value [1] was 650.

B2: wt: unmodified Fes SH2 domain, SEQ ID 21 (protein, listed as Homo sapiens)
chain: WYHGAIPRAEVAELLVHSGDFLVRESQGKQEYVLSVLWDGLPRHFIIQSLDNLYRLEGEGFPSIPLLIDHLLSTQQPLTKKSGVVLHRAV
In the case of B2, the IC50 ([2]; fluorescence polarization against the ezrin phosphopeptide) is reported as 1300 nM and the “Fold Change” value ([2]; fold enhancement in apparent affinity over wt Fes SH2) is reported as 1.

B3: SuperSrc-SH2: SEQ ID 136: high affinity variant of the Src SH2 domain, BC loop SETVKGA (protein)
chain: MKIEEHHHHHHSSGKLGLNDIFEAQKIEWHESSGEDLYFQSGTTMDDYKDDDDKGGSDSIQAEEWYFGKITRRESERLLLNAENPRGTFLVRESETVKGAYALSVSDFDNAKGLNVKHYLIRKLDSGGFYITSRTQFNSLQQLVAYYSKHADGLCHRLTTVCPSR
In the case of B3, the “effect on cancer cell signaling” value (cancer cell signaling) is listed as “dominant negative effect”.

B4: Src^sFes: SEQ ID 167: Src SH2 domain with sFes graft (protein)
chain: MKIEEHHHHHHSSGKLGLNDIFEAQKIEWHESSGEDLYFQSGTTMDDYKDDDDKGGSDGIQAEEWYFGKITRRESERLLLNAENPRGTFLVREGQSQPDYVLSVSDFDNAKGLNVKHYIIRKLDSGGFYITSRTQFNSLQQLVAYYSKHADGLCHRLTTVCPSR
With B4 the “enhancement of affinity of the domain (times)” value [3] was 125.

B5: Ptn6_C^wt: wild-type PTN6_C SH2 domain, SEQ ID 59 (protein, listed as Homo sapiens)
chain: WYHGHMSGGQAETLLQAKGEPWTFLVRESLSQPGDFVLSVLSDQPKAGPGSPLRVTHIKVMCEGGRYTVGGLETFDSLTDLVEHFKKTGIEEASGAFVYLRQPY
For B5, the change in affinity (QGVI{pTyr}SDLNLP; with either the sSrc or sFes graft) was “no improvement in affinity” and the change in binding (QGVI{pTyr}SDLNLP; αA-2-Arg mutation alone) was “not sufficient to enhance the binding”.
